# Numbering of substitutions follows the chain as printed. Names and notes keep the numbering of the source. Values joined by “and” are separate entries in the source; they are usually repeats but may differ in a detail not shown here. Equal values may be shown once.
# T1: RSV F glycoprotein (NUF4) (respiratory syncytial virus)
# T1 chain 1: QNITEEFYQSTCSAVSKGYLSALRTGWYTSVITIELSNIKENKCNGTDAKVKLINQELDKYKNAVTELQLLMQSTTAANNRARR
# T1 chain 2: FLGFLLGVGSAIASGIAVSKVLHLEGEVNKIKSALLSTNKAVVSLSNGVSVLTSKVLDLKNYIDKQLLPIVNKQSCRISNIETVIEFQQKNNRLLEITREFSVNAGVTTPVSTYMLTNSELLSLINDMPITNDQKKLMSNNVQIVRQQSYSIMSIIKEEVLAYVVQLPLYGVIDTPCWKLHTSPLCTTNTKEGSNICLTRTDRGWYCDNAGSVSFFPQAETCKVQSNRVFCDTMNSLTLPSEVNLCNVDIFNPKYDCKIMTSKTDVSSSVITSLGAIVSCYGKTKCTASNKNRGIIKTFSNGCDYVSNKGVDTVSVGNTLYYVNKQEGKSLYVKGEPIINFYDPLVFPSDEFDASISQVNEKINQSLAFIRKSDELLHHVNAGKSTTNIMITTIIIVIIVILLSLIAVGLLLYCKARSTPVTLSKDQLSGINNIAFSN
# B1: A13c4 IgG (antibody, V domains shown)
# VH: QVTLRESGPALVKPTQTLTLTCTFSGFSLSTAGMSVGWIRQPPGKALEWLADIWWDGKKSYNPSLKDRLTISKDTSKNQVVLKVTNMDPADTATYYCARDMIFNFYFDVWGQGTTVTVSS
# VL: DIQMTQSPSTLSASVGDRVTITCSLSSRVGYMHWYQQKPGKAPKLLIYDTMYQSSGVPSRFSGSGSGTEFTLTISSLQPDDFATYYCFQGSGYPFTFGGGTKVEIKR
# B2: A17d4(1) IgG (antibody, V domains shown)
# VH: B1 VH
# VL: B1 VL with S24L, L25P
# B3: A13a11 Fab (Fab, V domains shown)
# VH: B1 VH with G57D, S60H, F105W
# VL: DIQMTQSPSTLSASVGDRVTITCSPSSRVGYMHWYQQKPGKAPKLLIYDTYRHSSGVPSRFSGSGSGTEFTLTISSLQPDDFATYYCFQGSGYPFTFGGGTKVEIK
# B4: AFFF(1) Fab (Fab, V domains shown)
# VH: B1 VH with G57D, S60D, D67S, D100S, F103T
# VL: B3 VL with P25A, R28S, Y51F, R52K, H53L, S54A, G92F
# notes: also called AHH(1)
# B5: P12f2 Fab (Fab, V domains shown)
# VH: B1 VH with A32P, G57D, S60H
# VL: B3 VL with P25L, Y51F, R52Y, H53L
# B6: A12a6 Fab (Fab, V domains shown)
# VH: B1 VH with S60D
# VL: B3 VL with P25A, Y51F, R52K, H53L
# B7: A13c4 Fab (Fab, V domains shown)
# VH: B1 VH
# VL: B3 VL with P25L, Y51M, R52Y, H53Q
# B8: A1e9 Fab (Fab, V domains shown)
# VH: B1 VH with S60H, F105W
# VL: B3 VL with P25L, Y51F, R52K, H53L
# notes: also called Ale9
# B9: AFFF(1) IgG (antibody, V domains shown)
# VH: B1 VH with G57D, S60D, D67S, D100S, F103T
# VL: B1 VL with L25A, R28S, M51F, Y52K, Q53L, S54A, G92F
# B10: AFFG IgG (antibody, name in Kabat numbering, V domains shown)
# VH: B1 VH with G57D, S60D, D67S, D100S, F103T
# VL: B3 VL with P25A, R28S, Y51F, R52K, H53L, S54A
# B11: AFSF IgG (antibody, name in Kabat numbering, V domains shown)
# VH: B1 VH with G57D, S60D, D67S, D100S, F103T
# VL: B3 VL with P25A, R28S, Y51S, R52K, H53L, S54A, G92F
# B12: AFFY IgG (antibody, name in Kabat numbering, V domains shown)
# VH: B1 VH with G57D, S60D, D67S, D100S, F103T
# VL: B3 VL with P25A, R28S, Y51F, R52K, H53L, S54A, G92Y
# B13: P11d4 Fab (Fab, V domains shown)
# VH: B1 VH with A32P, S60H, F105W
# VL: B3 VL with Y51M, H53L, S54A
# B14: G93F Fab (Fab, name in Kabat numbering, V domains shown)
# VH: B1 VH with A32S, G57D, S60D, D67S, D100S, F103T, F105W
# VL: B3 VL with P25A, R28S, Y51S, R52K, H53L, S54A, G92F
# B15: W100F Fab (Fab, name in Kabat numbering, V domains shown)
# VH: B1 VH with A32S, G57D, S60D, D67S, D100S, F103T
# VL: B3 VL with P25A, R28S, Y51S, R52K, H53L, S54A
# B16: AFSF Fab (Fab, name in Kabat numbering, V domains shown)
# VH: B1 VH with G57D, S60D, D67S, D100S, F103T
# VL: B3 VL with P25A, R28S, Y51S, R52K, H53L, S54A, G92F
# Biological target: Bac-F (respiratory syncytial virus)
# Assay: SPR (BIAcore), mAb vs Bac-F (1:1)
Binder,Kd [pM],fold in parentheses (palivizumab = 1) [fold]
B1,130,30
B2,90,43

# Biological target: T2, F protein of RSV (Long strain) (RSV (Long strain), UniProt P12568 26-574)
# Assay: cell-based or functional assay
Binder,"Microneutralization IC50, IgG","Microneutralization IC50, Fab"
B1,0.0376 µg/ml and 0.25 nM,–
B2,0.0342 µg/ml and 0.23 nM,–
B3,–,0.012 µg/ml and 2.4 nM
B4,–,0.0715 µg/ml and 1.43 nM
B5,–,0.0407 µg/ml and 0.81 nM
B6,–,0.0287 µg/ml and 0.57 nM
B7,–,0.0264 µg/ml and 0.53 nM
B8,–,0.157 µg/ml and 3.14 nM
B9,2.04 nM and 0.306 µg/ml,–

# Biological target: T3, recombinant C-terminally truncated RSV (A2 strain) F protein (RSV (A2 strain), UniProt P03420 26-524)
# T3 construct: extracellular domain; also called truncated F protein; extracellular domain of the F protein from RSV A2
# Assay: SPR (BIAcore), IgG over immobilised F
Binder,koff [s⁻¹],kon [M⁻¹ s⁻¹]
B10,≤ 5e-06,147000
B9,≤ 5e-06,127000
B11,≤ 5e-06,147000
B12,≤ 5e-06,144000

# Biological target: T3, recombinant C-terminally truncated RSV …
# Assay: SPR (BIAcore), Fab over immobilised F
Binder,Kd [pM],koff [s⁻¹],kon [M⁻¹ s⁻¹]
B3,337,0.000229,680000
B4,≤ 37,≤ 5e-06,134000
B5,135,7.2e-05,535000
B13,682,0.000389,570000
B6,422,0.000219,519000
B7,172,0.000112,650000
B8,216,0.000113,523000

# Biological target: T1, RSV F glycoprotein (NUF4)
# Assay: SPR (BIAcore), mAb vs NUF4 (2:1)
Binder,Kd [pM],fold in parentheses (palivizumab = 1) [fold],koff [s⁻¹],kon [M⁻¹ s⁻¹]
B1,700,446,0.000225,320000
B2,1110,281,0.000292,264000

# Biological target: RSV F protein (purified) (respiratory syncytial virus)
# Assay: SPR (BIAcore), F protein immobilised
Binder,koff,kon
B3,0.00025 s⁻¹,735000 M⁻¹ s⁻¹
B4,0.000245 s⁻¹ and 0.000446 s⁻¹ and 0.000268 s⁻¹,212000 M⁻¹ s⁻¹ and 156000 M⁻¹ s⁻¹ and 186000 M⁻¹ s⁻¹
B5,0.000282 s⁻¹,663000 M⁻¹ s⁻¹
B13,0.000717 s⁻¹,570000 M⁻¹ s⁻¹ and 572000 M⁻¹ s⁻¹
B6,0.00023 s⁻¹,743000 M⁻¹ s⁻¹
B7,0.00028 s⁻¹,781000 M⁻¹ s⁻¹ and 735000 M⁻¹ s⁻¹
B8,0.000453 s⁻¹,790000 M⁻¹ s⁻¹
B9,0.000274 s⁻¹ and 0.000266 s⁻¹ and 0.000206 s⁻¹,108000 M⁻¹ s⁻¹ and 96000 M⁻¹ s⁻¹ and 124000 M⁻¹ s⁻¹

# Biological target: T1, RSV F glycoprotein (NUF4)
# Assay: ITC, NUF4 titrated into antibody, 35 C
# Description: The binding thermodynamics of the antibodies were determined from ITC measurements using a Microcal, Inc. VP Titration Calorimeter. The VP titration calorimeter consists of a matched pair of sample and reference vessels (1.409 ml) enclosed in an adiabatic enclosure and a rotating stirrer-syringe for titrating ligand solutions into the sample vessel. The ITC measurements were performed at 25° C. and 35° C. The sample vessel contained the antibody in the phosphate buffer while the reference vessel contained just the buffer solution. The phosphate buffer solution was saline 67 mM PO₄ at pH 7.4 from HyClone, Inc. Five or ten μl aliquots of the 0.05 to 0.1 mM NUF4 solution were titrated 3 to 4 minutes apart into the antibody sample solution until the binding was saturated as evident by the lack of a heat exchange signal. […] This was attributed to a heat of dilution of the NUF4 titrant and was subtracted from the titrant heats obtained during the titration prior to analysis of the data.
# A non-linear, least square minimization software program from Microcal, Inc., Origin 5.0, was used to fit the incremental heat of the ith titration (ΔQ (i)) of the total heat, Qₜ, to the total titrant concentration, Xₜ, according to the following equations (I),
Binder,Ka [M⁻¹],Kd [pM],ΔHb [kcal/mol]
B1,1.07e+08,9000,16
B2,7.5e+07,13000,16.3

# Biological target: T3, recombinant C-terminally truncated RSV …
# Assay: SPR (BIAcore), IgG over immobilised F
# Remark: another data set of the same source
Binder,Kd [pM],koff [s⁻¹],kon [M⁻¹ s⁻¹]
B1,132,3.96e-05,300000
B2,89,4.07e-05,456000
B9,≤ 39,≤ 5e-06,127000

# Biological target: T2, F protein of RSV (Long strain)
# Assay: cell-based or functional assay
# Remark: another data set of the same source
row,Binder,IC50 [pM]
1,B3,2040
2,B5,650
3,B13,> 20000
4,B6,620
5,B7,520
6,B8,2500

# Biological target: T2, F protein of RSV (Long strain)
# Assay: cell-based or functional assay
# Remark: another data set of the same source
Binder,"Microneutralization IC50, IgG","Microneutralization IC50, Fab"
B10,0.453 µg/ml and 3.02 nM,–
B14,–,8.84 µg/ml and 177 nM
B4,–,0.0715 µg/ml and 1.43 nM
B15,–,2.6 µg/ml and 52 nM
B16,–,0.0908 µg/ml and 1.82 nM
B9,0.306 µg/ml and 2.04 nM,–
B11,0.521 µg/ml and 3.47 nM,–
B12,0.407 µg/ml and 2.71 nM,–

# Biological target: T3, recombinant C-terminally truncated RSV …
# Assay: SPR (BIAcore), Fab over immobilised F
# Remark: another data set of the same source
Binder,Kd [pM],koff [s⁻¹],kon [M⁻¹ s⁻¹]
B14,1070,0.000174,163000
B4,≤ 37,≤ 5e-06,134000
B15,510,8.4e-05,165000
B16,≤ 44,≤ 5e-06,113000

# Biological target: T2, F protein of RSV (Long strain)
# Assay: cell-based or functional assay
# Remark: another data set of the same source
Binder,Mean IC50 (Control) [µg/mL],Mean IC50 (Curve) [µg/mL]
B1,0.0375,0.0376
B2,0.0354,0.0342
B3,0.102,0.12
B5,0.0326,0.0407
B13,> 1,> 1
B6,0.031,0.0287
B7,0.0258,0.0264
B8,0.125,0.157

# Biological target: T1, RSV F glycoprotein (NUF4)
# Assay: SPR (BIAcore), mAb vs NUF4 (1:1)
Binder,Kd [pM],fold in parentheses (palivizumab = 1) [fold],koff [s⁻¹],kon [M⁻¹ s⁻¹]
B1,750,12,0.000272,365000
B2,730,12,0.000362,499000

# Biological target: T3, recombinant C-terminally truncated RSV …
# Assay: SPR (BIAcore), Fab over immobilised F
# Remark: another data set of the same source
Binder,fold improvement in affinity over 493L1FR Fab [fold],fold higher affinity than palivizumab Fab [fold],fold improvement in koff (against palivizumab Fab) [fold]
B14,3 to 7,–,–
B4,–,> 117,–
B15,–,–,8
B16,–,> 117,–
